Values of other authors as cited in publication PMC8776070.

What was measured:
CXCR2 (Homo sapiens) = CXCR2 (Homo sapiens) (UniProt P25025)
CXCR1 (Homo sapiens) = CXCR1 (Homo sapiens) (UniProt P25024)
ACKR1 (Homo sapiens) = ACKR1 (Homo sapiens) (UniProt Q16570)
Sequence of UniProt Q16570 (Q16570 whole entry): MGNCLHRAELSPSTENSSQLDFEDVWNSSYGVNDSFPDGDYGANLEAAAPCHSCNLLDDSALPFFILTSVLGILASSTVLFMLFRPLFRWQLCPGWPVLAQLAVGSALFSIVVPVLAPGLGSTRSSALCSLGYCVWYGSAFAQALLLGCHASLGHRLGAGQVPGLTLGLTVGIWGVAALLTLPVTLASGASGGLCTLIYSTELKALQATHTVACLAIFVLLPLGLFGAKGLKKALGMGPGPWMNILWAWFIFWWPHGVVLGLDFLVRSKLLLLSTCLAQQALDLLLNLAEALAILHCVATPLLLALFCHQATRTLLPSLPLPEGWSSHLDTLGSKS

Sequence of UniProt P25025 (P25025 whole entry): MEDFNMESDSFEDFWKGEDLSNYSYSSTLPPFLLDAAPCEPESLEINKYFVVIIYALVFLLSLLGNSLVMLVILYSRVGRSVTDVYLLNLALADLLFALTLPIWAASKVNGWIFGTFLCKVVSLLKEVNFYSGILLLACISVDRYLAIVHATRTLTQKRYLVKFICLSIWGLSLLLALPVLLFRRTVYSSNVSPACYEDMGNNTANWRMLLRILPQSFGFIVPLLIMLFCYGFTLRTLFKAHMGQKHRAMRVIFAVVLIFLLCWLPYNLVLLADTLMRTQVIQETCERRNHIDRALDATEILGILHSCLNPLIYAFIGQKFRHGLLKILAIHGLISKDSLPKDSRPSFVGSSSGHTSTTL
Sequence of UniProt P25024 (P25024 whole entry): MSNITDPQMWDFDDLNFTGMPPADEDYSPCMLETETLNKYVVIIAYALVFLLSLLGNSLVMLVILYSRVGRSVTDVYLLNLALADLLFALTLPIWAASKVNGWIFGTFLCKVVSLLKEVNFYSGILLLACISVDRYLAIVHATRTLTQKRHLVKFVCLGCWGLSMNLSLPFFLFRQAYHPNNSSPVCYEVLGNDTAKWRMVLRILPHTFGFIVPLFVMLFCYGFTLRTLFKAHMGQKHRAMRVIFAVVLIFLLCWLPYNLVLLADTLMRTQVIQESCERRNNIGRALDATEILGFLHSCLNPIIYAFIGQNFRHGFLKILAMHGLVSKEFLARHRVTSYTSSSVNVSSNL

Kd (CXCR2 (Homo sapiens)): 3 nM | Kd (CXCR1 (Homo sapiens)): 300 nM | Kd (ACKR1 (Homo sapiens)): 1.81 nM
Substance: CXCL1 (from UniProt P09341)
